Measured values published in US8809287B2, “Compositions and methods for altering Wnt autocrine signaling” (Icahn School of Medicine at Mount Sinai, priority 2004, dated 2014).

B1: DKK1: Dickkopf-1, secreted Wnt antagonist protein that binds Wnt co-receptor LRP6; used purified, in conditioned media or retrovirally expressed with HA tag (protein, UniProt O94907 32-266, looked up)
Dickkopf-related protein 1: TLNSVLNSNAIKNLPPPLGGAAGHPGSAVSAAPGILYPGGNKYQTIDNYQPYPCAEDEECGTDEYCASPTRGGDAGVQICLACRKRRKRCMRHAMCCPGNYCKNGICVSSDQNHFRGEIEETITESFGNDHSTLDGYSRRTTLSSKMYHTKGQEGSVCLRSSDCASGLCCARHFWSKICKPVLKEGQVCTKHRRKGSHGLEIFQRCYCGEGLSCRIQKDHHQASNSSRLHTCQRH
modifications: HA tag in some uses
B2: FRP1: human secreted Frizzled Related Protein 1, Wnt antagonist; expressed from pBabe-derived retrovirus with carboxy-terminal HA tag (protein, UniProt Q8N474 32-314, looked up)
Secreted frizzled-related …: SEYDYVSFQSDIGPYQSGRFYTKPPQCVDIPADLRLCHNVGYKKMVLPNLLEHETMAEVKQQASSWVPLLNKNCHAGTQVFLCSLFAPVCLDRPIYPCRWLCEAVRDSCEPVMQFFGFYWPEMLKCDKFPEGDVCIAMTPPNATEASKPQGTTVCPPCDNELKSEAIIEHLCASEFALRMKIKEVKKENGDKKIVPKKKKPLKLGPIKKKDLKKLVLYLKNGADCPCHQLDNLSHHFLIMGRKVKSQYLLTAIHKWDKKNKEFKNFMKKMKNHECPTFQSVFK
modifications: C-terminal HA tag
notes: human secreted Frizzled Related Protein 1, Wnt antagonist; expressed from pBabe-derived retrovirus with carboxy-terminal HA tag

Assays:
uncomplexed β-catenin [1] = experiment: Uncomplexed β-catenin in HCC38 and other positive breast cancer cell lines; assay type: cell-based, human; details: HCC38 and several positive breast cancer lines; DKK1-containing conditioned media for two hours
Procedure: (§1) β-catenin levels were assessed using the GST-E-cadherin binding assay, which has been previously described (Bafico et al., (1998) Oncogene 16:2819-2825). Briefly, bacterially expressed GST-E-cadherin was purified with glutathione-Sepharose beads and incubated with 1 mg of each cell lysate. The GST-E-cadherin/[…]-catenin complex bound to the beads was recovered by centrifugation and analyzed by SDS-PAGE followed by immunoblotting. The uncomplexed β-catenin was detected using a monoclonal antibody to β-catenin (Transduction Laboratories). Unphosphorylated β-catenin was detected with a monoclonal antibody specific for β-catenin dephosphorylated at residues 27-37 (Alexis, Läufelfingen, Switzerland). FRP1-HA and DKK1-HA were detected with an anti-HA monoclonal antibody (Hybridoma Center, Mount Sinai School of Medicine, New York).
In addition, we have analyzed about 20 additional human breast cancer cell lines for increased levels of uncomplexed β-catenin. Analysis of uncomplexed β-catenin levels was performed as described in Example 3 utilizing 1 mg of total cell lysate. A monoclonal antibody to β-catenin (Transduction Laboratories) was utilized for immunoblotting. We found increased levels of uncomplexed β-catenin in 6 of these cell lines (FIG. 3A, lanes 1, 3, 4 and data not shown). We have also analyzed DKK inhibition of autocrine Wnt signaling in HCC38 breast cancer cells. […]

uncomplexed β-catenin [2] = experiment: GST-E-cadherin binding assay / immunoblot of uncomplexed β-catenin, Wnt-3a expressing NIH3T3 cells; assay type: cell-based, mouse; details: NIH3T3 cells stably expressing Wnt-3a; purified DKK1 (10 nM)
Procedure: as §1, with “York). […]” for “York).”

uncomplexed β-catenin [3] = experiment: Uncomplexed β-catenin in HCT116 wild type or mutant β-catenin allele clones; assay type: cell-based, human; details: FRP1-HA transfection
Procedure: as §1
HCT116 parental cells and clones expressing either the wild type or mutant β-catenin allele were transfected with FRP1-HA and subjected to the GST-E-cadherin binding assay (described in Example 3) to examine the effect of FRP1 on uncomplexed β-catenin levels. Uncomplexed β-catenin was detected with anti-β-catenin antibody. The levels of FRP1 in the lysates were detected with an anti-HA antibody. […]

[4] = tested on: TCF-dependent reporter activity; experiment: TOP-Glow/FOP-Glow TCF reporter assay in HCT116 wild type β-catenin allele clone; assay type: cell-based, human
Procedure: TCF responsive elements operably linked to a reporter (TOP-Glow, wild type, or FOP-Glow, mutant) were analyzed for transcriptional activity in […]. HCT116 (ATCC No. CCL-247) cells containing the wild type β-catenin allele were plated at 3×10^5 per well in 6-well plates and co-transfected with 1 μg of either the TOP-glow or FOP-glow plasmids (Upstate Biotechnology) and 0.001 μg of the Renilla control plasmid (pRL-CMV) utilizing FuGene® (Roche) according to the manufacturer's instructions. After 48 hours cells were lysed and analyzed utilizing the Dual Luciferase Reporter Assay system (Promega).

ID2 = experiment: Northern blot of Id2 in HCT116 clones; assay type: cell-based, human; details: HCT116 wild type β-catenin allele clone
Description: We next assessed the effects of FRP1 inhibition on the expression of Id2, Cyclin D1 and Myc, known targets of Wnt/β-catenin in colorectal cancer (Rockman et al. (2001) J. Biol. Chem. 276:45113-45119; Tetsu and McCormick (1999) Nature 398:422-426; He et al. (1998) Science 281:1509-1512). RNAs were extracted from HCT116 parental cells, and either wild type or mutant β-catenin allele containing clones transfected with either vector control or FRP1-HA using Triazol (Invitrogen). The RNAs were separated by (1%) agarose gel electrophoresis and transferred to a nylon membrane (Hybond®, Pharmacia). Probes were labeled by the Random Prime Labelling System method (Amersham Biosciences), and hybridization was performed overnight utilizing the Hybrisol I solution (Serologicals Corporation) according to the manufacturer's instructions. Normalization was performed utilizing a commercial human GADPH control probe (BD Biosciences Clontech).

Molecule	uncomplexed β-catenin levels (uncomplexed β-catenin [1])	up-regulated β-catenin levels (uncomplexed β-catenin [2])	uncomplexed β-catenin levels (uncomplexed β-catenin [3]; HCT116 clone containing only the mutant β-catenin allele)	β-catenin levels (uncomplexed β-catenin [3]; HCT116 wild type β-catenin allele-containing clone)	TCF-dependent reporter activity [4]	Id2 transcript level (ID2)
B1	striking reduction	striking inhibition of up-regulated β-catenin levels				
B2			little if any effect	dramatic reduction	able to inhibit	reduction
